Laboratory results taken from publication PMC12207370, “Macrocyclic Peptide Probes for Immunomodulatory Protein CD59: Potent Modulators of Bacterial Toxin Activity and Antibody‐Dependent Cytotoxicity” (Angewandte Chemie (International Ed. in English), 2025).

Target: T1, biotinylated CD59 (Homo sapiens, UniProt P13987)
T1 construct: Recombinant soluble human CD59 with an additional C-terminal cysteine residue
T1 sequence (P13987 26-102 limits assumed): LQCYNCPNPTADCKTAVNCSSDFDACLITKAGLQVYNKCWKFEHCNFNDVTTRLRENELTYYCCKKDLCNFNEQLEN
Experiment: mRNA-display cyclic peptide screen against CD59-biotin, NGS abundance after 6th selection round
Settings: for Counts (raw counts for peptide sequence), Seq I: NGS sample Seq I; for Counts (raw counts for peptide sequence), Seq I / Counts (raw counts for peptide sequence), Seq II / Counts Seq I / Counts Seq II: sheet R6 (6th selection round); for Counts (raw counts for peptide sequence), Seq II: NGS sample Seq II; for Percentage of the pool, averaged across the two sequencing samples: average of Seq I and Seq II; for Percentage of the pool, averaged across the two sequencing samples / Percentage of the pool, Seq I / Percentage of the pool, Seq II / Percentage Seq I / Percentage Seq II / Percentage Average: sheet R6; for Percentage of the pool, Seq I: counts normalised by total counts of NGS sample Seq I; for Percentage of the pool, Seq II: counts normalised by total counts of NGS sample Seq II; for Percentage Seq I: counts normalised by total counts of sample Seq I; for Percentage Seq I / Percentage Seq II: percentage of the pool; for Percentage Seq II: counts normalised by total counts of sample Seq II; for Percentage Average: percentage of the pool averaged across the two sequencing samples; for Counts Seq I / Counts Seq II: raw NGS counts of peptide sequence; for Counts Seq I: sequencing sample Seq I; for Counts Seq II: sequencing sample Seq II
Text: To discover novel non‐protein CD59 ligands, we screened a library of 10^12 cyclic peptides against CD59 using mRNA‐display (Figure 2a).^[ [23], [24], [25], [26], [27], [28], [29] ^] Briefly, an mRNA library was designed in which the start codon was reprogrammed from Met to N‐chloroacetyl‐D‐Tyr (ClAc‐D‐Tyr), followed by 10–12 randomly encoded natural amino acids, a Cys residue, a (GlySer)3 linker, and a stop codon. […] The total library diversity was 1.51 × 10^13 molecules, comprising 5.02 × 10^12 molecules of each macrocycle size, covering a subset of the maximum theoretical diversity of this library design. Following in vitro translation, ClAc‐D‐Tyr spontaneously reacts with either the C‐terminal Cys or a Cys in the random region, yielding macrocyclic thioether peptides. Hits from the library were identified through iterative enrichment and amplification against biotinylated CD59, then immobilized on streptavidin beads. Fifteen hit sequences (CP‐01 to CP‐15), enriched with abundance >1% relative to the total pool of recovered binders after the 6th round of selection, were synthesized by solid phase peptide synthesis (SPPS), without the (Gly‐Ser)3 linker.
Figure 2 Discovery of macrocyclic peptide ligands with nanomolar CD59 affinity using mRNA display. a) The selection process. PCR = polymerase chain reaction, SPPS = solid phase peptide synthesis. b) Table showing details of the peptides with nanomolar affinity for CD59 as well as the binding affinity of the lead inhibitor of CD59, rILYd4. K D values are presented as the average of three technical replicates ± SEM. Structures of all peptides and SPR sensograms are presented in Figures S1 and S2. *indicates the presented sequences are the variable regions of these cyclic peptides; each is flanked by an N‐terminal Ac‐D‐Tyr cyclized to a C‐terminal Cys. R6 abundance (%) is defined as (the given number of NGS reads for a given sequence/the total number of reads of unique sequences observed in NGS)*100 following the 6th selection round. c) Representative sensogram of the interaction between CP‐06 with immobilized CD59 by SPR analysis. Inset showing the equilibrium binding curve of CP‐06 to CD‐59. Below in the box are the association and dissociation rate constants of CP‐06. Concentrations are plotted in descending order from 800‐3.1 nM in line with their position on the legend. […] (nM)'; the box with Kon/Koff has no label of its own / ILYd4: the label may be cut off at the left edge (possibly 'rILYd4') / CP-02, KD: 15.3 ± 0.2, small print, 3 or 8 uncertain / CP-03, KD: 23.4 ± 0.7, small print / CP-06, KD: 11.3 ± 0.0, small print, 3 or 8 uncertain / CP-13, KD: 10.8 ± 0.7, small print, 8 or 6 uncertain / ILYd4, KD: 48.3 ± 1.1, small print, 8 and 3 uncertain
The mRNA-display cyclic peptide screen was performed against CD59-biotin by T.E.M: DNA templates for transcription were generated by PCR in a similar manner to that previously described.^2 RNA oligonucleotides were transcribed from the DNA templates using T7 RNA polymerase and purified by phenol/chloroform extraction followed by ethanol precipitation. Oligonucleotide concentrations were determined spectroscopically by absorbance at 260 nm. In the first selection round a 1:1:1 molar ratio of NNK10/NNK11/NNK12 was used. The procedure for selection rounds 2-6 is described below; round 1 was conducted at twice the scale.
RNA encoding for the peptide library ligated to a puromycin-modified oligonucleotide was […] (final [RNA] = 2.5 µM) using a customised PURE express kit (lacking release factor 1 and methionine, supplemented with […] initiator tRNA acylated with N-chloroacetyl-d-tyrosine prepared as previously described)^3 in a final volume of 5.6 µL for 1 hour at 37 °C.
This mixture was incubated at 42 °C for 1 hour before being diluted to 500 µL with PBS (10 mM Na-PO4 pH 7.4, 2.7 mM KCl, 137 mM NaCl) and 0.5 µL taken for subsequent use in qPCR. […]

Row | Sequence | Counts (raw counts for peptide sequence), Seq I | Counts (raw counts for peptide sequence), Seq II | Percentage of the pool, averaged across the two sequencing samples [%] | Percentage of the pool, Seq I [%] | Percentage of the pool, Seq II [%] | Percentage Seq I [%] | Percentage Seq II [%] | Percentage Average [%] | Counts Seq I | Counts Seq II
1 | AISGGRDYTRG | 43 | 6 | 0.012 | 0.010 | 0.014 |  |  |  |  | 
2 | AKGNGHFAYG |  |  |  |  |  | 0.144 | 0.114 | 0.129 | 629 | 49
3 | ARGGPTWSRG |  |  |  |  |  | 0.034 | 0.037 | 0.035 | 147 | 16
4 | ASWLPSPCKFN |  |  |  |  |  | 0.029 | 0.037 | 0.033 | 128 | 16
5 | ASWLPSPCKFS | 73 | 4 | 0.013 | 0.017 | 0.009 |  |  |  |  | 
6 | ASWLTAPCYV |  |  |  |  |  | 0.032 | 0.019 | 0.025 | 138 | 8
7 | AVAGSRHWAWG |  |  |  |  |  | 0.039 | 0.039 | 0.039 | 171 | 17
8 | AVHGSSFYVWG |  |  |  |  |  | 0.037 | 0.039 | 0.038 | 164 | 17
9 | AVRGSSFYVWG |  |  |  |  |  | 0.098 | 0.107 | 0.102 | 427 | 46
10 | AVWGSAHDRWE |  |  |  |  |  | 0.044 | 0.046 | 0.045 | 193 | 20
11 | CAWGNRHIAYY |  |  |  |  |  | 0.183 | 0.195 | 0.189 | 800 | 84
12 | CAWGNRHTAYY |  |  |  |  |  | 0.018 | 0.030 | 0.024 | 80 | 13
13 | CAWGNRYIAYY |  |  |  |  |  | 0.078 | 0.067 | 0.073 | 342 | 29
14 | CAWGNRYTAYY | 68 | 5 | 0.014 | 0.016 | 0.012 |  |  |  |  | 
15 | CCGGRTFIYAWS | 44 | 4 | 0.010 | 0.010 | 0.009 |  |  |  |  | 
16 | CEALLRRGWD |  |  |  |  |  | 0.094 | 0.079 | 0.087 | 413 | 34
17 | CFAARARNNQTV |  |  |  |  |  | 0.091 | 0.093 | 0.092 | 396 | 40

Row | Sequence | Counts (raw counts for peptide sequence), Seq I | Counts (raw counts for peptide sequence), Seq II | Percentage of the pool, averaged across the two sequencing samples [%] | Percentage of the pool, Seq I [%] | Percentage of the pool, Seq II [%] | Percentage Seq I [%] | Percentage Seq II [%] | Percentage Average [%] | Counts Seq I | Counts Seq II
18 | CFAARLSNGDS |  |  |  |  |  | 0.319 | 0.362 | 0.341 | 1397 | 156
19 | CFAARLSNGDT | 73 | 7 | 0.016 | 0.017 | 0.016 |  |  |  |  | 
20 | CFAFRLSQTSV |  |  |  |  |  | 0.179 | 0.146 | 0.162 | 782 | 63
21 | CFAGRLAIDAV | 54 | 8 | 0.015 | 0.012 | 0.019 |  |  |  |  | 
22 | CFAGRLTEGV |  |  |  |  |  | 0.035 | 0.044 | 0.040 | 155 | 19
23 | CFAGRLTIDAA | 78 | 1 | 0.010 | 0.018 | 0.00232 |  |  |  |  | 
24 | CFAGRLTIDAAAAAAARTGGG | 62 | 9 | 0.018 | 0.014 | 0.021 |  |  |  |  | 
25 | CFAGRLTIDAG | 59 | 4 | 0.011 | 0.013 | 0.009 |  |  |  |  | 
26 | CFAGRLTIDAV |  |  |  |  |  | 2.645 | 2.553 | 2.599 | 11574 | 1100
27 | CFAGRLTIGAV |  |  |  |  |  | 0.056 | 0.056 | 0.056 | 245 | 24
28 | CFAGRLTTDAV |  |  |  |  |  | 0.044 | 0.044 | 0.044 | 193 | 19
29 | CFAGRLTVDAV |  |  |  |  |  | 0.037 | 0.030 | 0.034 | 163 | 13
30 | CFAGRPTIDAV |  |  |  |  |  | 0.018 | 0.028 | 0.023 | 80 | 12
31 | CFAHRITDPDTQ |  |  |  |  |  | 0.023 | 0.019 | 0.021 | 100 | 8
32 | CFAHRITDPNTQ |  |  |  |  |  | 0.027 | 0.014 | 0.020 | 117 | 6
33 | CFAKRIVALHST | 54 | 7 | 0.014 | 0.012 | 0.016 |  |  |  |  | 
34 | CFAKRLSLDAL |  |  |  |  |  | 0.177 | 0.176 | 0.177 | 774 | 76
